The sequences below were run on Escherichia coli TOP10 (assay: shrunken log2 fold change of peptide-encoding DNA abundance (4.5 h post-induction vs induction); higher = less antimicrobial activity (less host growth inhibition)). Settings: time post-induction: 4.5 h; library: site-saturation at positions 5, 18, 19, 20.
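Note: peptides expressed intracellularly from a pBAD plasmid library in pooled LB shake-flask culture, induced with 0.3% L-arabinose, DNA abundance read by NGS, three biological replicates, DESeq2 with apeglm shrinkage.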

Row | Sequence | shrunken log2 fold change
1 | RRIRKRPPRLPRPRPRPEMWPRP | 0.719
2 | RRIRPRPPRLPRPRPRPKPSPRP | 0.699
3 | RRIRNRPPRLPRPRPRPQIPPRP | 0.0549
4 | RRIRVRPPRLPRPRPRPENFPRP | 0.0199
5 | RRIRYRPPRLPRPRPRPKRYPRP | -0.0281
6 | RRIRPRPPRLPRPRPRPDHCPRP | -0.199
7 | RRIRARPPRLPRPRPRPWCIPRP | -0.319
8 | RRIRNRPPRLPRPRPRPMYRPRP | -0.473
9 | RRIRQRPPRLPRPRPRPNQSPRP | -0.0722
10 | RRIRQRPPRLPRPRPRPAVQPRP | 0.013
11 | RRIRGRPPRLPRPRPRPTQFPRP | 0.772
12 | RRIRHRPPRLPRPRPRPWYMPRP | -0.324
13 | RRIRARPPRLPRPRPRPSKPPRP | -0.281
14 | RRIRCRPPRLPRPRPRPYYCPRP | -1.03
15 | RRIRERPPRLPRPRPRPAQHPRP | 0.124
16 | RRIRSRPPRLPRPRPRPTALPRP | 0.14
17 | RRIRWRPPRLPRPRPRPKNKPRP | 0.107
18 | RRIRRRPPRLPRPRPRPVWTPRP | 0.436
19 | RRIRDRPPRLPRPRPRPPIYPRP | -0.242
20 | RRIRGRPPRLPRPRPRPKACPRP | 0.145

Row | Sequence | shrunken log2 fold change
21 | RRIRMRPPRLPRPRPRPFSFPRP | -0.0784
22 | RRIRHRPPRLPRPRPRPNNMPRP | -0.674
23 | RRIRVRPPRLPRPRPRPLANPRP | -0.0581
24 | RRIRMRPPRLPRPRPRPYKPPRP | 0.0559
25 | RRIRCRPPRLPRPRPRPVHVPRP | -0.496
26 | RRIRFRPPRLPRPRPRPLSDPRP | 0.207
27 | RRIRKRPPRLPRPRPRPRTFPRP | 0.243
28 | RRIRDRPPRLPRPRPRPCTHPRP | -0.0766
29 | RRIRERPPRLPRPRPRPPHMPRP | -0.152
30 | RRIRIRPPRLPRPRPRPMCPPRP | -0.0137
31 | RRIRKRPPRLPRPRPRPFIFPRP | 0.085
32 | RRIRPRPPRLPRPRPRPECPPRP | 0.353
33 | RRIRPRPPRLPRPRPRPINWPRP | -0.241
34 | RRIRKRPPRLPRPRPRPNFGPRP | 0.252
35 | RRIRPRPPRLPRPRPRPPRLPRP | 0.406
36 | RRIRQRPPRLPRPRPRPQCCPRP | -0.0133
37 | RRIRSRPPRLPRPRPRPYRQPRP | -0.402
38 | RRIRDRPPRLPRPRPRPPKPPRP | 0.214
39 | RRIRSRPPRLPRPRPRPQINPRP | -0.46
40 | RRIRPRPPRLPRPRPRPAINPRP | -0.142

Row | Sequence | shrunken log2 fold change
41 | RRIRIRPPRLPRPRPRPEAQPRP | 0.0863
42 | RRIRLRPPRLPRPRPRPLTRPRP | 1.93
43 | RRIRERPPRLPRPRPRPCNRPRP | -0.0134
44 | RRIRRRPPRLPRPRPRPAEIPRP | 1.1
45 | RRIRIRPPRLPRPRPRPPPDPRP | 0.654
46 | RRIRCRPPRLPRPRPRPHMPPRP | -0.585
47 | RRIRARPPRLPRPRPRPCRHPRP | -0.355
48 | RRIRKRPPRLPRPRPRPIKSPRP | 3.22
49 | RRIRWRPPRLPRPRPRPRENPRP | 0.707
50 | RRIRIRPPRLPRPRPRPPFTPRP | 0.0753
51 | RRIRSRPPRLPRPRPRPVRHPRP | -0.0103
52 | RRIRERPPRLPRPRPRPGMMPRP | -0.235
53 | RRIRVRPPRLPRPRPRPHKFPRP | 0.0807
54 | RRIRWRPPRLPRPRPRPITGPRP | 0.047
55 | RRIRNRPPRLPRPRPRPPYLPRP | -0.269
56 | RRIRIRPPRLPRPRPRPHCAPRP | -0.0649
57 | RRIRDRPPRLPRPRPRPVAVPRP | 0.453
58 | RRIRNRPPRLPRPRPRPDNHPRP | -0.0531
59 | RRIRGRPPRLPRPRPRPQMNPRP | 0.355
60 | RRIRYRPPRLPRPRPRPINMPRP | -0.281

Source: the supplement of paper PMC9112550, “Optimization of the antimicrobial peptide Bac7 by deep mutational scanning” (BMC Biology, 2022)
